Laboratory results taken from PMC4769027 (Journal of structural biology, 2016).

B1: FcγRIIa H131 variant ectodomain (receptor, human, UniProt P12318 34-211, looked up)
chain: QAAAPPKAVLKLEPPWINVLQEDSVTLTCQGARSPESDSIQWFHNGNLIPTHTQPSYRFKANNNDSGEYTCQTGQTSLSDPVHLTVLSEWLVLQTPHLEFQEGETIMLRCHSWKDKPLVKVTFFQNGKSQKFSHLDPTFSIPQANHSHSGDYHCTGNIGYTLFSSKPVTITVQVPSMG
B2: FcγRIIb ectodomain (receptor, human, UniProt P31994 43-217, looked up)
chain: TPAAPPKAVLKLEPQWINVLQEDSVTLTCRGTHSPESDSIQWFHNGNLIPTHTQPSYRFKANNNDSGEYTCQTGQTSLSDPVHLTVLSEWLVLQTPHLEFQEGETIVLRCHSWKDKPLVKVTFFQNGKSKKFSRSDPNFSIPQANHSHSGDYHCTGNIGYTLYSSKPVTITVQAP

Molecular target: wild-type IgG1 Fc (human, UniProt P01857 108-328 = IgG part, N-linked glycan at Asn297)
Test: SPR

Binder	Kd [µM]
B1	4.49
B2	9.28
